Measurements taken from patent publication US8147817B2, “IL-33 in the treatment and diagnosis of diseases and disorders” (The Brigham and Women's Hospital, Inc., priority 2006, dated 2012).
Entries after “also recorded” stand apart in the source; their conditions may differ. Read-outs that look alike come from different tables or passages of the source.

Experiments:
[1] = system: IκBα; test: IκBα phosphorylation by Western analysis in cardiac fibroblasts; format: cell-based, rat
Description: (§1) Western analyses were performed as described previously (45). Membranes were incubated with primary antibodies overnight (anti-p44/42MAPK diluted 1:500; phospho-p44/42MAPK (Thr202/Tyr204) 1:1000; phospho-JNK (Thr183/Tyr185) 1:500; p38MAPK 1:500; phospho-p38MAPK (Thr180/Tyr182) 1:500; phospho-Akt (Ser473) 1:1000 and phospho-IκBα 1:1000, all from Cell Signaling, anti-mouse ST2L, from R&D 1:1000 and anti-IL-33 as described above, 1:500) at 4° C., detected with horseradish peroxidase-conjugated antibodies and enhanced chemiluminescence.

[2] = system: MAP kinases and Akt; test: Western analysis for MAP kinases and Akt in cardiomyocytes; format: cell-based, rat
Description: Phosphorylation of MAP kinases and Akt were detected by Western analysis as previously described (5). Membranes were incubated with primary antibodies overnight (phospho ERK1/2 diluted 1:1000; phospho SAPK/JNK diluted 1:500; phospho p38 MAPK diluted 1:500; phospho Akt (Ser473) diluted 1:1000). All antibodies were from Cell Signaling Technology, Inc. (Danvers, Mass.) and were sequentially detected with horseradish peroxidase-conjugated goat anti-rabbit IgG and enhanced chemiluminescence.
as §1

[3] = system: rat neonatal cardiomyocytes; test: Cardiomyocyte apoptosis assays (H2O2 stimulus); format: cell-based
Description: For cardiomyocyte apoptosis assays, cardiomyocytes were plated overnight, cultured serum-free for 24 hours, and then subjected to 0.1 mM H2O2 for another 24 hours with or without treatment with purified rat mature IL-33 protein. TUNEL staining (FIG. 19) was performed using a TUNEL staining kit (Roche Diagnostics Corp., Indianapolis, Ind.). For DNA fragmentation experiments (FIGS. 19 and 20), cells were trypsinized, fixed with ethanol, incubated in RNase, stained with propidium iodide, and then subjected to flow cytometry (Cytomics FC 500; Beckman Coulter).
Membranes (PVDF, PerkinElmer) were incubated with primary antibodies overnight (anti-cleaved caspase-3, 1:1000; from Cell Signaling Technology) at 4° C., detected with horseradish peroxidase-conjugated antibodies (Bio-Rad) and enhanced chemiluminescence (FIG. 20).

[4] = system: WT and ST2−/− mice after TAC; conditions: for induction of ANP and BNP gene expression after TAC: left ventricle 1 week after operation;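 as to all read-outs here: ST2−/− mice and WT littermates, 8-10 weeks old at the time of TAC surgery where applicable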
Description: Targeted ST2 ablated mice and their wild-type littermates were employed for the experiment simultaneously. TAC was produced as described previously (11-13) on 8-10 week old mice. Some mice underwent daily intraperitoneal (i.p.) injection of IL-33 (2 μg suspended in 100 microliters of PBS with 0.2% bovine serum albumin) or vehicle beginning from the day after TAC operation to the day of harvest.
Formalin-fixed, paraffin-embedded sections were prepared as previously described (42). For immunohistochemistry, the first antibodies used were anti-cleaved caspase-3 (Cell Signaling Technology) and anti-mac3 (BD Biosciences, San Jose, Calif.). For TUNEL analysis, the In Situ apoptosis detection kit (Chemicon, Temecula, Calif.) was used along with the manufacturer's protocol with some optimal modifications on the treatment periods.
Targeted ST2−/− mice and their WT littermates were employed for the experiments. TAC was produced as described previously (49, 50) on 8-10 week old mice. All operative procedures were performed by a single operator with over 20 years rodent cardiac surgery experience who was blinded to genotype and the randomized treatment assignment. Following the procedure, each mouse received daily i.p. injection of recombinant rat IL-33 (2 μg) or vehicle from the day after TAC operation until the day of harvest.
Echocardiographic acquisition and analysis were performed by an echocardiographer blinded to treatment group. […] All images were taken at a heart rate greater than 400 beats per minute to minimize effects of anesthesia, using a Sonos-4500 (Philips) and a 15-MHz transducer. Three consecutive cardiac cycles were averaged. Left ventricular mass was calculated by the M-mode method (51). Left ventricular fractional shortening was calculated as (EDD−ESD)/EDD×100%, where EDD is end-diastolic dimension and ESD is end-systolic dimension.
A planimetry image analysis program was used by an investigator blinded to treatment group to quantitate the 30 high power field regions randomly selected in each slice with Hematoxylin-eosin stain (for cross-sectional area) or Sirius-red stain (for fibrotic area). Cross sectional area of cardiomyocytes was measured as described previously (52). Fibrotic area was calculated as (red area/total area)×100%. The scores from all slices were averaged to calculate their respective values.

[5] = ST2−/− mice, 4 weeks after operation
[6] = WT mice surviving 8 weeks after TAC
[7] = WT mice, IL-33 2 μg/day i.p. for 4 weeks

B1: IL-33: recombinant mature rat IL-33, starting with amino acid 109 of the full-length protein, N-terminal His tag (GenBank BC081993) (protein)
chain: SIQGTSLLTESCALSTYNDQSVSFVLENGCYVINVEDCGKNQEKDKVLLRYYESSFPAQSGDGVDGKKLMVNMSPIKDTDIWLNANDKDYSVELQKGDVSPPDQAFFVLHKKSSDFVSFECKNLPGTYIGVKDNQLALVEENDESCNNIMFKLSKM
modifications: left off: small tags and cut ends
- IκBα phosphorylation by agent alone [1]: induced IκBα phosphorylation in both cell types
- phosphorylation of ERK, p38 and JNK MAP kinases ([2]; IL-33 (10 ng/ml) alone): increased phosphorylation of ERK, p38 and JNK MAP kinases; also recorded: generally modest compared with IL-1β; also recorded: activated all MAP kinases
- Akt activation ([2]; IL-33 alone): minimally activated Akt
- angiotensin-II-induced Akt activation ([2]; co-treatment with IL-33): did not impair angiotensin-II-induced Akt activation
- angiotensin-II-induced ERK phosphorylation ([2]; co-treatment with IL-33): did not affect ERK phosphorylation
- angiotensin-II-induced JNK phosphorylation ([2]; co-treatment with IL-33): decreased
- angiotensin-II-induced p38MAPK phosphorylation ([2]; co-treatment with IL-33): decreased
- apoptosis (TUNEL staining, flow cytometry and caspase-3 evaluation together) [3]: can prevent apoptosis in cardiac myocytes
- apoptosis by TUNEL staining [3]: can prevent apoptosis in cardiac myocytes; also recorded: can reduce apoptosis in cardiac myocytes
- apoptosis by caspase-3 activation [3]: can prevent apoptosis in cardiac myocytes
- apoptosis by flow cytometry after propidium iodide staining [3]: can prevent apoptosis in cardiac myocytes
- percentage of TUNEL positive nuclei in myocardium ([4]; 4 weeks after operation): not changed; also recorded: did not affect TUNEL positivity
- Gross Heart/Body Weight after TAC ([4]; ST2−/− mice): not in ST2−/− mice
- NF-κB nuclear binding activity in left ventricular myocardium ([4]; ST2−/− mice, 1 week after operation): not in ST2−/− mice; also recorded: modest increase in NF-κB binding
- hypertrophy by echocardiography after TAC [4, 5]: not in ST2−/− littermates
- increased left ventricular dilation and reduced fractional shortening after TAC [4, 5]: not reversed
- induction of ANP and BNP gene expression after TAC ([4]; ST2−/− mice): not in ST2−/− mice
- Gross Heart/Body Weight after TAC ([4]; WT mice): antihypertrophic effect of IL-33 in WT mice
- survival after TAC ([4]; WT mice): significantly improved survival in WT mice after TAC; also recorded: improved pathological changes and survival in WT mice
- fractional shortening (echocardiography) [4, 6]: increased fractional shortening
- left ventricular wall thickness (echocardiography) [4, 6]: reduced wall thickness
- NF-κB nuclear binding activity in left ventricular myocardium after TAC ([4]; WT mice, 1 week after operation): inhibited NF-κB induction only in WT mice; also recorded: reversed these changes only in WT mice
- macrophage infiltration in myocardium after TAC ([4]; WT mice, 1 week, co-treatment with IL-33): decreased by co-treatment with IL-33; also recorded: reduced macrophage infiltration after TAC only in WT mice
- hypertrophy by echocardiography after TAC ([4]; WT mice, 4 weeks after operation): reduced hypertrophy only in WT mice
- cardiac fibrosis (Sirius-red) after TAC [4, 7]: reduced cardiac fibrosis; also recorded: significantly improved these changes in WT mice
- cardiomyocyte hypertrophy (cross-sectional area) after TAC [4, 7]: reduced cardiac fibrosis and cardiomyocyte hypertrophy; also recorded: significantly improved these changes in WT mice
- induction of ANP and BNP gene expression after TAC ([4]; WT mice): markedly attenuated induction of both genes in WT; also recorded: effectively reversed the induction of these hypertrophic genes in WT mice with TAC; also recorded: reversed these changes only in WT mice
- macrophage infiltration in myocardium, IL-33 alone ([4]; WT or ST2−/− mice without TAC, 1 week of treatment): did not significantly increase macrophage infiltration; also recorded: not observed; also recorded: did not induce macrophage infiltration
- echocardiographic parameters under non-stress conditions ([4]; no TAC): no significant change
